Data taken from the supplement of paper PMC11908140.

B1: library; numbered along this chain (parent)
chain: MRKPRAAVGSGHRKQAASQEGRQKHAKNNSQAKPSACDGLARQPEEVVLQASVSSYHLFRDVAEVTAFRGSLLSWYDQEKRDLPWRRRAEDEMDLDRRAYAVWVSEVMLQQTQVATVINYYTGWMQKWPTLQDLASASLEEVNQLWAGLGYYSRGRRLQEGARKVVEELGGHMPRTAETLQQLLPGVGRYTAGAIASIAFGQATGVVDGNVARVLCRVRAIGADPSSTLVSQQLWGLAQQLVDPARPGDFNQAAMELGATVCTPQRPLCSQCPVESLCRARQRVEQEQLLASGSLSGSPDVEECAPNTGQCHLCLPPSEPWDQTLGVVNFPRKASRKPPREESSATCVLEQPGALGAQILLVQRPNSGLLAGLWEFPSVTWEPSEQLQRKALLQELQRWAGPLPATHLRHLGEVVHTFSHIKLTYQVYGLALEGQTPVTTVPPGARWLTQEEFHTAAVSTAMKKVFRVYQGQQPGTCMGSKRSQVSSPCSRKKPRMGQQVLDNFFRSHISTDAHSLNSAAQ

Variants of: B1
Assay: 8OG:A repair function score (normalized; synonymous = 0, nonsense = -1) (normalized log-likelihood score); higher = more repair activity (WT-like)
Settings: with 8OG:A DNA repair reporter (GFP) in HEK-293 MUTYH KO cells
Summary of the method: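 Per-tile Rosace fitness scores were converted to a normalized repair function score anchored on synonymous and nonsense distributions. That scale puts synonymous medians at 0 and nonsense medians at -1. Variants with starting counts under 300 counts per million were discarded. Input came from sorting viable mCherry+ MUTYH knockout HEK-293 cells, carrying lentiviral MUTYH cDNA NNN codon-scan libraries in 10 pg/ml doxycycline and an 8OG:A GFP repair reporter, into GFP+ and GFP− bins at 72 h, three replicates per tile, followed by tile amplicon sequencing.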
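Note: cells sorted at 72 h after reporter transfection.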

Row | Variant | 8OG:A repair function score
1 | MRKPRAAVGSGHRKQAASQEGRQKHAKNNSQAKPSACDGLARQPEEVVLQASVSSYHLFRDVAEVTAFRGSLLSWYDQEKRDLPWRRRAEDEMDLDRRAYAVWVSEVMLQQTQVATVINYYTGWMQKWPTLQDLASASLEEVNQLWAGLGYYSRGRRLQEGARKVVEELGGHMPRTAETLQQLLPGVGRYTAGAIASIAFGQATGVVDGNVARVLCRVRAIGADPSSTLVSQQLWGLAQQLVDPARPGDFNQAAMELGATVCTPQRPLCSQCPVESLCRARQRVEQEQLLASGSLSGSPDVEECAPNTGQCHLCLPPSEPWDQTLGVVNFPRKASRKPPREESSATCVLEQPGALGAQILLVQRPNSGLLAGLWEFPSVTWEPSEQLQRKALLQELQRWAGPLPATHLRHLGEVVHTFSHIKLTYQVYGLALEGQTPVTTVPPGARWLTQEEFHTAAVSTAMKKVFRVYQGQQPNTCMGSKRSQVSSPCSRKKPRMGQQVLDNFFRSHISTDAHSLNSAAQ [G475N] | 0.0259
2 | MRKPRAAVGSGHRKQAASQEGRQKHAKNNSQAKPSACDGLARQPEEVVLQASVSSYHLFRDVAEVTAFRGSLLSWYDQEKRDLPWRRRAEDEMDLDRRAYAVWVSEVMLQQTQVATVINYYTGWMQKWPTLQDLASASLEEVNQLWAGLGYYSRGRRLQEGARKVVEELGGHMPRTAETLQQLLPGVGRYTAGAIASIAFGQATGVVDGNVARVLCRVRAIGADPSSTLVSQQLWGLAQQLVDPARPGDFNQAAMELGATVCTPQRPLCSQCPVESLCRARQRVEQEQLLASGSLSGSPDVEECAPNTGQCHLCLPPSEPWDQTLGVVNFPRKASRKPPREESSATCVLEQPGALGAQILLVQRPNSGLLAGLWEFPSVTWEPSEQLQRKALLQELQRWAGPLPATHLRHLGEVVHTFSHIKLTYQVYGLALEGQTPVTTVPPGARWLTQEEFHTAAVSTAMKKVFRVYQGQQPSTCMGSKRSQVSSPCSRKKPRMGQQVLDNFFRSHISTDAHSLNSAAQ [G475S] | -0.016
3 | MRKPRAAVGSGHRKQAASQEGRQKHAKNNSQAKPSACDGLARQPEEVVLQASVSSYHLFRDVAEVTAFRGSLLSWYDQEKRDLPWRRRAEDEMDLDRRAYAVWVSEVMLQQTQVATVINYYTGWMQKWPTLQDLASASLEEVNQLWAGLGYYSRGRRLQEGARKVVEELGGHMPRTAETLQQLLPGVGRYTAGAIASIAFGQATGVVDGNVARVLCRVRAIGADPSSTLVSQQLWGLAQQLVDPARPGDFNQAAMELGATVCTPQRPLCSQCPVESLCRARQRVEQEQLLASGSLSGSPDVEECAPNTGQCHLCLPPSEPWDQTLGVVNFPRKASRKPPREESSATCVLEQPGALGAQILLVQRPNSGLLAGLWEFPSVTWEPSEQLQRKALLQELQRWAGPLPATHLRHLGEVVHTFSHIKLTYQVYGLALEGQTPVTTVPPGARWLTQEEFHTAAVSTAMKKVFRVYQGQQPLTCMGSKRSQVSSPCSRKKPRMGQQVLDNFFRSHISTDAHSLNSAAQ [G475L] | 0.0136
4 | MRKPRAAVGSGHRKQAASQEGRQKHAKNNSQAKPSACDGLARQPEEVVLQASVSSYHLFRDVAEVTAFRGSLLSWYDQEKRDLPWRRRAEDEMDLDRRAYAVWVSEVMLQQTQVATVINYYTGWMQKWPTLQDLASASLEEVNQLWAGLGYYSRGRRLQEGARKVVEELGGHMPRTAETLQQLLPGVGRYTAGAIASIAFGQATGVVDGNVARVLCRVRAIGADPSSTLVSQQLWGLAQQLVDPARPGDFNQAAMELGATVCTPQRPLCSQCPVESLCRARQRVEQEQLLASGSLSGSPDVEECAPNTGQCHLCLPPSEPWDQTLGVVNFPRKASRKPPREESSATCVLEQPGALGAQILLVQRPNSGLLAGLWEFPSVTWEPSEQLQRKALLQELQRWAGPLPATHLRHLGEVVHTFSHIKLTYQVYGLALEGQTPVTTVPPGARWLTQEEFHTAAVSTAMKKVFRVYQGQQPQTCMGSKRSQVSSPCSRKKPRMGQQVLDNFFRSHISTDAHSLNSAAQ [G475Q] | -0.00214
5 | MRKPRAAVGSGHRKQAASQEGRQKHAKNNSQAKPSACDGLARQPEEVVLQASVSSYHLFRDVAEVTAFRGSLLSWYDQEKRDLPWRRRAEDEMDLDRRAYAVWVSEVMLQQTQVATVINYYTGWMQKWPTLQDLASASLEEVNQLWAGLGYYSRGRRLQEGARKVVEELGGHMPRTAETLQQLLPGVGRYTAGAIASIAFGQATGVVDGNVARVLCRVRAIGADPSSTLVSQQLWGLAQQLVDPARPGDFNQAAMELGATVCTPQRPLCSQCPVESLCRARQRVEQEQLLASGSLSGSPDVEECAPNTGQCHLCLPPSEPWDQTLGVVNFPRKASRKPPREESSATCVLEQPGALGAQILLVQRPNSGLLAGLWEFPSVTWEPSEQLQRKALLQELQRWAGPLPATHLRHLGEVVHTFSHIKLTYQVYGLALEGQTPVTTVPPGARWLTQEEFHTAAVSTAMKKVFRVYQGQQPVTCMGSKRSQVSSPCSRKKPRMGQQVLDNFFRSHISTDAHSLNSAAQ [G475V] | -0.0131
6 | MRKPRAAVGSGHRKQAASQEGRQKHAKNNSQAKPSACDGLARQPEEVVLQASVSSYHLFRDVAEVTAFRGSLLSWYDQEKRDLPWRRRAEDEMDLDRRAYAVWVSEVMLQQTQVATVINYYTGWMQKWPTLQDLASASLEEVNQLWAGLGYYSRGRRLQEGARKVVEELGGHMPRTAETLQQLLPGVGRYTAGAIASIAFGQATGVVDGNVARVLCRVRAIGADPSSTLVSQQLWGLAQQLVDPARPGDFNQAAMELGATVCTPQRPLCSQCPVESLCRARQRVEQEQLLASGSLSGSPDVEECAPNTGQCHLCLPPSEPWDQTLGVVNFPRKASRKPPREESSATCVLEQPGALGAQILLVQRPNSGLLAGLWEFPSVTWEPSEQLQRKALLQELQRWAGPLPATHLRHLGEVVHTFSHIKLTYQVYGLALEGQTPVTTVPPGARWLTQEEFHTAAVSTAMKKVFRVYQGQQPPTCMGSKRSQVSSPCSRKKPRMGQQVLDNFFRSHISTDAHSLNSAAQ [G475P] | -0.00826
7 | MRKPRAAVGSGHRKQAASQEGRQKHAKNNSQAKPSACDGLARQPEEVVLQASVSSYHLFRDVAEVTAFRGSLLSWYDQEKRDLPWRRRAEDEMDLDRRAYAVWVSEVMLQQTQVATVINYYTGWMQKWPTLQDLASASLEEVNQLWAGLGYYSRGRRLQEGARKVVEELGGHMPRTAETLQQLLPGVGRYTAGAIASIAFGQATGVVDGNVARVLCRVRAIGADPSSTLVSQQLWGLAQQLVDPARPGDFNQAAMELGATVCTPQRPLCSQCPVESLCRARQRVEQEQLLASGSLSGSPDVEECAPNTGQCHLCLPPSEPWDQTLGVVNFPRKASRKPPREESSATCVLEQPGALGAQILLVQRPNSGLLAGLWEFPSVTWEPSEQLQRKALLQELQRWAGPLPATHLRHLGEVVHTFSHIKLTYQVYGLALEGQTPVTTVPPGARWLTQEEFHTAAVSTAMKKVFRVYQGQQPYTCMGSKRSQVSSPCSRKKPRMGQQVLDNFFRSHISTDAHSLNSAAQ [G475Y] | -0.00721
8 | MRKPRAAVGSGHRKQAASQEGRQKHAKNNSQAKPSACDGLARQPEEVVLQASVSSYHLFRDVAEVTAFRGSLLSWYDQEKRDLPWRRRAEDEMDLDRRAYAVWVSEVMLQQTQVATVINYYTGWMQKWPTLQDLASASLEEVNQLWAGLGYYSRGRRLQEGARKVVEELGGHMPRTAETLQQLLPGVGRYTAGAIASIAFGQATGVVDGNVARVLCRVRAIGADPSSTLVSQQLWGLAQQLVDPARPGDFNQAAMELGATVCTPQRPLCSQCPVESLCRARQRVEQEQLLASGSLSGSPDVEECAPNTGQCHLCLPPSEPWDQTLGVVNFPRKASRKPPREESSATCVLEQPGALGAQILLVQRPNSGLLAGLWEFPSVTWEPSEQLQRKALLQELQRWAGPLPATHLRHLGEVVHTFSHIKLTYQVYGLALEGQTPVTTVPPGARWLTQEEFHTAAVSTAMKKVFRVYQGQQPMTCMGSKRSQVSSPCSRKKPRMGQQVLDNFFRSHISTDAHSLNSAAQ [G475M] | -0.126
9 | MRKPRAAVGSGHRKQAASQEGRQKHAKNNSQAKPSACDGLARQPEEVVLQASVSSYHLFRDVAEVTAFRGSLLSWYDQEKRDLPWRRRAEDEMDLDRRAYAVWVSEVMLQQTQVATVINYYTGWMQKWPTLQDLASASLEEVNQLWAGLGYYSRGRRLQEGARKVVEELGGHMPRTAETLQQLLPGVGRYTAGAIASIAFGQATGVVDGNVARVLCRVRAIGADPSSTLVSQQLWGLAQQLVDPARPGDFNQAAMELGATVCTPQRPLCSQCPVESLCRARQRVEQEQLLASGSLSGSPDVEECAPNTGQCHLCLPPSEPWDQTLGVVNFPRKASRKPPREESSATCVLEQPGALGAQILLVQRPNSGLLAGLWEFPSVTWEPSEQLQRKALLQELQRWAGPLPATHLRHLGEVVHTFSHIKLTYQVYGLALEGQTPVTTVPPGARWLTQEEFHTAAVSTAMKKVFRVYQGQQPTTCMGSKRSQVSSPCSRKKPRMGQQVLDNFFRSHISTDAHSLNSAAQ [G475T] | -0.0403
10 | MRKPRAAVGSGHRKQAASQEGRQKHAKNNSQAKPSACDGLARQPEEVVLQASVSSYHLFRDVAEVTAFRGSLLSWYDQEKRDLPWRRRAEDEMDLDRRAYAVWVSEVMLQQTQVATVINYYTGWMQKWPTLQDLASASLEEVNQLWAGLGYYSRGRRLQEGARKVVEELGGHMPRTAETLQQLLPGVGRYTAGAIASIAFGQATGVVDGNVARVLCRVRAIGADPSSTLVSQQLWGLAQQLVDPARPGDFNQAAMELGATVCTPQRPLCSQCPVESLCRARQRVEQEQLLASGSLSGSPDVEECAPNTGQCHLCLPPSEPWDQTLGVVNFPRKASRKPPREESSATCVLEQPGALGAQILLVQRPNSGLLAGLWEFPSVTWEPSEQLQRKALLQELQRWAGPLPATHLRHLGEVVHTFSHIKLTYQVYGLALEGQTPVTTVPPGARWLTQEEFHTAAVSTAMKKVFRVYQGQQPWTCMGSKRSQVSSPCSRKKPRMGQQVLDNFFRSHISTDAHSLNSAAQ [G475W] | -0.0871
11 | MRKPRAAVGSGHRKQAASQEGRQKHAKNNSQAKPSACDGLARQPEEVVLQASVSSYHLFRDVAEVTAFRGSLLSWYDQEKRDLPWRRRAEDEMDLDRRAYAVWVSEVMLQQTQVATVINYYTGWMQKWPTLQDLASASLEEVNQLWAGLGYYSRGRRLQEGARKVVEELGGHMPRTAETLQQLLPGVGRYTAGAIASIAFGQATGVVDGNVARVLCRVRAIGADPSSTLVSQQLWGLAQQLVDPARPGDFNQAAMELGATVCTPQRPLCSQCPVESLCRARQRVEQEQLLASGSLSGSPDVEECAPNTGQCHLCLPPSEPWDQTLGVVNFPRKASRKPPREESSATCVLEQPGALGAQILLVQRPNSGLLAGLWEFPSVTWEPSEQLQRKALLQELQRWAGPLPATHLRHLGEVVHTFSHIKLTYQVYGLALEGQTPVTTVPPGARWLTQEEFHTAAVSTAMKKVFRVYQGQQPRTCMGSKRSQVSSPCSRKKPRMGQQVLDNFFRSHISTDAHSLNSAAQ [G475R] | 0.00413
12 | MRKPRAAVGSGHRKQAASQEGRQKHAKNNSQAKPSACDGLARQPEEVVLQASVSSYHLFRDVAEVTAFRGSLLSWYDQEKRDLPWRRRAEDEMDLDRRAYAVWVSEVMLQQTQVATVINYYTGWMQKWPTLQDLASASLEEVNQLWAGLGYYSRGRRLQEGARKVVEELGGHMPRTAETLQQLLPGVGRYTAGAIASIAFGQATGVVDGNVARVLCRVRAIGADPSSTLVSQQLWGLAQQLVDPARPGDFNQAAMELGATVCTPQRPLCSQCPVESLCRARQRVEQEQLLASGSLSGSPDVEECAPNTGQCHLCLPPSEPWDQTLGVVNFPRKASRKPPREESSATCVLEQPGALGAQILLVQRPNSGLLAGLWEFPSVTWEPSEQLQRKALLQELQRWAGPLPATHLRHLGEVVHTFSHIKLTYQVYGLALEGQTPVTTVPPGARWLTQEEFHTAAVSTAMKKVFRVYQGQQPGACMGSKRSQVSSPCSRKKPRMGQQVLDNFFRSHISTDAHSLNSAAQ [T476A] | -0.0442
